# Data as given in publication PMC6606808.
# Target: Acinetobacter baumannii AdeB multidrug efflux pump (Acinetobacter baumannii AB0057)
# Assay: cryo-EM structure; single-particle cryo-EM of purified AdeB reconstituted in lipidic nanodiscs (MSP 1E3D1, E. coli total extract lipid); 20 mM Tris-HCl pH 7.5, 100 mM NaCl; no substrate; C3 symmetry; 2.98 Å
substance,measurement,value
Acinetobacter baumannii AdeB multidrug efflux pump (natural protein),stoichiometry N,3
